Data: patent publication US20250066503A1, “CELL INJURY INDUCING THERAPEUTIC DRUG FOR USE IN CANCER THERAPY” (CHUGAI SEIYAKU KABUSHIKI KAISHA, priority 2016, published 2025)

Target: T1, human GPC3 (human, UniProt P51654 25-563)
T1 construct: range 25-563; soluble analyte; also called soluble human GPC3; glypican 3
Test: SPR

T1 sequence (P51654 25-563 limits assumed): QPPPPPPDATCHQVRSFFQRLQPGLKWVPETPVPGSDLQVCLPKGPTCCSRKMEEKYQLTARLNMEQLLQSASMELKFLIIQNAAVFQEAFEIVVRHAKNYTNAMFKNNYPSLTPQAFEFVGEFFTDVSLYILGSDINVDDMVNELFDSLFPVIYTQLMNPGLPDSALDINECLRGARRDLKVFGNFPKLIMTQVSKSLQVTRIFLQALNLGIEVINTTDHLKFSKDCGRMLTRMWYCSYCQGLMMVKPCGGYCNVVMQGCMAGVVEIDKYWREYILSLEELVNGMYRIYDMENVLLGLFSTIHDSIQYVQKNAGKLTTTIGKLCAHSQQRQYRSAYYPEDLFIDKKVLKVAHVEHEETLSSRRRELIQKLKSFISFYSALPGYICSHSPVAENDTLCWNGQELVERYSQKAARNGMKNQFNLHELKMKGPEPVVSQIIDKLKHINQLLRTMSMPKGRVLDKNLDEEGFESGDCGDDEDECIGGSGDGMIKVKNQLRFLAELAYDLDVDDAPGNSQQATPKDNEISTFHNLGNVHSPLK

Row | Binder | Kd
1 | GCH034-G1dh/none-Hi-Kn010G3/L0000-k0 (antibody, V domains shown, one-arm) VH: QVQLVQSGAEVKKPGASVKVSCKASGYTFTDYEMHWIRQPPGQGLEWIGAIDGKTPDTAYSQKFEGRVTLTADKSTSTAYMELSSLTSEDTAVYYCTRFYSYTYWGQGTLVTVSS VL: DIVMTQSPLSLPVTPGEPASISCRSSQSLVHSNRNTYLHWYQQKPGQAPRLLIYKVSNRFSGVPDRFSGSGSGTDFTLKISRVEAEDVGVYYCGQGTQVPYTFGQGTKLEIKR | 5.09 nM
2 | GCH059-G1dh/none-Hi-Kn010G3/L0000-k0 (antibody, V domains shown, one-arm) VH: QVQLVQSGAEVKKPGASVTVSCKASGYTFTDYEMHWIRQPPGEGLEWIGAIDGETPDTAYSQKFEGRVTLTADKSTSTAYMELSSLTEEDTAVYYCTRFYSYTYWGQGTLVTVSS VL: DIVMTQSPLSLPVTPGEPASISCRSSQSLVHSNRNTYLHWYQQKPGQAPRLLIYKVSNRFSGVPDRFSGSGSGTDFTLKISRVEAEDVGVYYCGQGTQVPYTFGQGTKLEIKR | 5.7 nM
3 | GCH056-G1dh/none-Hi-Kn010G3/L0011-k0 (antibody, V domains shown, one-arm) VH: QVQLVQSGAEVKKPGASVTVSCKASGYTFTDYEMHWIRQPPGEGLEWIGAIDGETPDTAYSQKFEGRVTLTADKSTSTAYMELSSLTSEDTAVYYCTRFYSYTYWGQGTLVTVSS VL: DIVMTQSPLSLPVTPGEPASISCRSSQPLVHSNRNTYLHWYQQKPGQAPRLLIYKVSNRFSGVPDRFSGSGSGTDFTLKISRVEAEDVGVYYCGQGTQVPYTFGQGTKLEIKR | 4.31 nM
4 | GCH055-G1dh/none-Hi-Kn010G3/L0000-k0 (antibody, V domains shown, one-arm) VH: QVQLVQSGAEVKKPGASVTVSCKASGYTFTDYEMHWIRQPPGEGLEWIGAIDGETPDTAYSDKFKGRVTLTADKSTSTAYMELSSLTSEDTAVYYCTRFYSYTYWGQGTLVTVSS VL: DIVMTQSPLSLPVTPGEPASISCRSSQSLVHSNRNTYLHWYQQKPGQAPRLLIYKVSNRFSGVPDRFSGSGSGTDFTLKISRVEAEDVGVYYCGQGTQVPYTFGQGTKLEIKR | 5.6 nM
5 | GCH040-G1dh/none-Hi-Kn010G3/L0000-k0 (antibody, V domains shown, one-arm) VH: QVQLVQSGAEVKKPGASVKVSCKASGYTFTDYEMHWIRQPPGQGLEWIGAIDGKTPDTAYSQKFKGRVTLTADKSTSTAYMELSELTSEDTAVYYCTRFYSYTYWGQGTLVTVSS VL: DIVMTQSPLSLPVTPGEPASISCRSSQSLVHSNRNTYLHWYQQKPGQAPRLLIYKVSNRFSGVPDRFSGSGSGTDFTLKISRVEAEDVGVYYCGQGTQVPYTFGQGTKLEIKR | 4.8 nM
6 | GCH054-G1dh/none-Hi-Kn010G3/L0000-k0 (antibody, V domains shown, one-arm) VH: QVQLVQSGAEVKKPGASVTVSCKASGYTFTDYEMHWIRQPPGEGLEWIGAIDGETPDTAYSEKFKGRVTLTADKSTSTAYMELSSLTSEDTAVYYCTRFYSYTYWGQGTLVTVSS VL: DIVMTQSPLSLPVTPGEPASISCRSSQSLVHSNRNTYLHWYQQKPGQAPRLLIYKVSNRFSGVPDRFSGSGSGTDFTLKISRVEAEDVGVYYCGQGTQVPYTFGQGTKLEIKR | 5.3 nM
7 | GCH057-G1dh/none-Hi-Kn010G3/L0000-k0 (antibody, V domains shown, one-arm) VH: QVQLVQSGAEVKKPGASVTVSCKASGYTFTDYEMHWIRQPPGEGLEWIGAIDGETPDTAYSEKFEGRVTLTADKSTSTAYMELSSLTSEDTAVYYCTRFYSYTYWGQGTLVTVSS VL: DIVMTQSPLSLPVTPGEPASISCRSSQSLVHSNRNTYLHWYQQKPGQAPRLLIYKVSNRFSGVPDRFSGSGSGTDFTLKISRVEAEDVGVYYCGQGTQVPYTFGQGTKLEIKR | 5.61 nM
8 | GCH035-G1dh/none-Hi-Kn010G3/L0000-k0 (antibody, V domains shown, one-arm) VH: QVQLVQSGAEVKKPGASVKVSCKASGYTFTDYEMHWIRQPPGQGLEWIGAIDGKTPDTAYSQKFKGRVELTADKSTSTAYMELSSLTSEDTAVYYCTRFYSYTYWGQGTLVTVSS VL: DIVMTQSPLSLPVTPGEPASISCRSSQSLVHSNRNTYLHWYQQKPGQAPRLLIYKVSNRFSGVPDRFSGSGSGTDFTLKISRVEAEDVGVYYCGQGTQVPYTFGQGTKLEIKR | 4.94 nM
9 | GCH045-G1dh/none-Hi-Kn010G3/L0000-k0 (antibody, V domains shown, one-arm) VH: QVQLVQSGAEVKKPGASVKVSCKASGYTFTDYEMHWIRQPPGQGLEWIGAIDGKTPDTAYSQKFKGRVTLTADKSTSTAYMELSSLTSEDTAEYYCTRFYSYTYWGQGTLVTVSS VL: DIVMTQSPLSLPVTPGEPASISCRSSQSLVHSNRNTYLHWYQQKPGQAPRLLIYKVSNRFSGVPDRFSGSGSGTDFTLKISRVEAEDVGVYYCGQGTQVPYTFGQGTKLEIKR | 4.63 nM
10 | GCH039-G1dh/none-Hi-Kn010G3/L0000-k0 (antibody, V domains shown, one-arm) VH: QVQLVQSGAEVKKPGASVKVSCKASGYTFTDYEMHWIRQPPGQGLEWIGAIDGKTPDTAYSQKFKGRVTLTADKSTSTAYMELESLTSEDTAVYYCTRFYSYTYWGQGTLVTVSS VL: DIVMTQSPLSLPVTPGEPASISCRSSQSLVHSNRNTYLHWYQQKPGQAPRLLIYKVSNRFSGVPDRFSGSGSGTDFTLKISRVEAEDVGVYYCGQGTQVPYTFGQGTKLEIKR | 4.95 nM
11 | GCH042-G1dh/none-Hi-Kn010G3/L0000-k0 (antibody, V domains shown, one-arm) VH: QVQLVQSGAEVKKPGASVKVSCKASGYTFTDYEMHWIRQPPGQGLEWIGAIDGKTPDTAYSQKFKGRVTLTADKSTSTAYMELSSLTEEDTAVYYCTRFYSYTYWGQGTLVTVSS VL: DIVMTQSPLSLPVTPGEPASISCRSSQSLVHSNRNTYLHWYQQKPGQAPRLLIYKVSNRFSGVPDRFSGSGSGTDFTLKISRVEAEDVGVYYCGQGTQVPYTFGQGTKLEIKR | 4.89 nM
12 | GCH056-G1dh/none-Hi-Kn010G3/L0000-k0 (antibody, V domains shown, one-arm) VH: QVQLVQSGAEVKKPGASVTVSCKASGYTFTDYEMHWIRQPPGEGLEWIGAIDGETPDTAYSQKFEGRVTLTADKSTSTAYMELSSLTSEDTAVYYCTRFYSYTYWGQGTLVTVSS VL: DIVMTQSPLSLPVTPGEPASISCRSSQSLVHSNRNTYLHWYQQKPGQAPRLLIYKVSNRFSGVPDRFSGSGSGTDFTLKISRVEAEDVGVYYCGQGTQVPYTFGQGTKLEIKR | 5.03 nM

These reach a lower Kd. Values come first.

Row | Kd | Binder
13 | 4.05 nM | GCH053-G1dh/none-Hi-Kn010G3/L0000-k0 (antibody, V domains shown, one-arm) VH: QVQLVQSGAEVKKPGASVTVSCKASGYTFTDYEMHWIRQPPGEGLEWIGAIDGETPDTAYEQKFKGRVTLTADKSTSTAYMELSSLTSEDTAVYYCTRFYSYTYWGQGTLVTVSS VL: DIVMTQSPLSLPVTPGEPASISCRSSQSLVHSNRNTYLHWYQQKPGQAPRLLIYKVSNRFSGVPDRFSGSGSGTDFTLKISRVEAEDVGVYYCGQGTQVPYTFGQGTKLEIKR
14 | 3.74 nM | GCH043-G1dh/none-Hi-Kn010G3/L0000-k0 (antibody, V domains shown, one-arm) VH: QVQLVQSGAEVKKPGASVKVSCKASGYTFTDYEMHWIRQPPGQGLEWIGAIDGKTPDTAYSQKFKGRVTLTADKSTSTAYMELSSLTSEDEAVYYCTRFYSYTYWGQGTLVTVSS VL: DIVMTQSPLSLPVTPGEPASISCRSSQSLVHSNRNTYLHWYQQKPGQAPRLLIYKVSNRFSGVPDRFSGSGSGTDFTLKISRVEAEDVGVYYCGQGTQVPYTFGQGTKLEIKR
15 | 2.48 nM | GCH054-G1dh/none-Hi-Kn010G3/L0203-k0 (antibody, V domains shown, one-arm) VH: QVQLVQSGAEVKKPGASVTVSCKASGYTFTDYEMHWIRQPPGEGLEWIGAIDGETPDTAYSEKFKGRVTLTADKSTSTAYMELSSLTSEDTAVYYCTRFYSYTYWGQGTLVTVSS VL: DIVMTQSPLSLPVTPGEPASISCRSSQSPVHSNRNTYIHWYQQKPGQAPRLLIYKVSNRFSGVPDRFSGSGSGTDFTLKISRVEAEDVGVYYCGQGTQVPYTFGQGTKLEIKR
16 | 1.16 nM | GCH056-G1dh/none-Hi-Kn010G3/L0201-k0 (antibody, V domains shown, one-arm) VH: QVQLVQSGAEVKKPGASVTVSCKASGYTFTDYEMHWIRQPPGEGLEWIGAIDGETPDTAYSQKFEGRVTLTADKSTSTAYMELSSLTSEDTAVYYCTRFYSYTYWGQGTLVTVSS VL: DIVMTQSPLSLPVTPGEPASISCRSSQPPVHSNRNTYLHWYQQKPGQAPRLLIYKVSNRFSGVPDRFSGSGSGTDFTLKISRVEAEDVGVYYCGQGTQVPYTFGQGTKLEIKR
17 | 1.08 nM | GCH054-G1dh/none-Hi-Kn010G3/L0201-k0 (antibody, V domains shown, one-arm) VH: QVQLVQSGAEVKKPGASVTVSCKASGYTFTDYEMHWIRQPPGEGLEWIGAIDGETPDTAYSEKFKGRVTLTADKSTSTAYMELSSLTSEDTAVYYCTRFYSYTYWGQGTLVTVSS VL: DIVMTQSPLSLPVTPGEPASISCRSSQPPVHSNRNTYLHWYQQKPGQAPRLLIYKVSNRFSGVPDRFSGSGSGTDFTLKISRVEAEDVGVYYCGQGTQVPYTFGQGTKLEIKR
18 | 0.614 nM | GCH055-G1dh/none-Hi-Kn010G3/L0212-k0 (antibody, V domains shown, one-arm) VH: QVQLVQSGAEVKKPGASVTVSCKASGYTFTDYEMHWIRQPPGEGLEWIGAIDGETPDTAYSDKFKGRVTLTADKSTSTAYMELSSLTSEDTAVYYCTRFYSYTYWGQGTLVTVSS VL: DIVMTQSPLSLPVTPGEPASISCRPSQSPVHSNRNTYLHWYQQKPGQAPRLLIYKVSNRFSGVPDRFSGSGSGTDFTLKISRVEAEDVGVYYCYQGTQVPYTFGQGTKLEIKR
19 | 0.517 nM | GCH054-G1dh/none-Hi-Kn010G3/L0212-k0 (antibody, V domains shown, one-arm) VH: QVQLVQSGAEVKKPGASVTVSCKASGYTFTDYEMHWIRQPPGEGLEWIGAIDGETPDTAYSEKFKGRVTLTADKSTSTAYMELSSLTSEDTAVYYCTRFYSYTYWGQGTLVTVSS VL: DIVMTQSPLSLPVTPGEPASISCRPSQSPVHSNRNTYLHWYQQKPGQAPRLLIYKVSNRFSGVPDRFSGSGSGTDFTLKISRVEAEDVGVYYCYQGTQVPYTFGQGTKLEIKR
20 | 0.0315 nM | GCH054-G1dh/none-Hi-Kn010G3/L0222-k0 (antibody, V domains shown, one-arm) VH: QVQLVQSGAEVKKPGASVTVSCKASGYTFTDYEMHWIRQPPGEGLEWIGAIDGETPDTAYSEKFKGRVTLTADKSTSTAYMELSSLTSEDTAVYYCTRFYSYTYWGQGTLVTVSS VL: DIVMTQSPLSLPVTPGEPASISCRSSQSPVHSNRNTYIQWYQQKPGQAPRLLIYKVSNRFSGVPDRFSGSGSGTDFTLKISRVEAEDVGVYYCYQGTQVPYTFGQGTKLEIKR
21 | 0.0039 nM | GCH055-G1dh/none-Hi-Kn010G3/L0222-k0 (antibody, V domains shown, one-arm) VH: QVQLVQSGAEVKKPGASVTVSCKASGYTFTDYEMHWIRQPPGEGLEWIGAIDGETPDTAYSDKFKGRVTLTADKSTSTAYMELSSLTSEDTAVYYCTRFYSYTYWGQGTLVTVSS VL: DIVMTQSPLSLPVTPGEPASISCRSSQSPVHSNRNTYIQWYQQKPGQAPRLLIYKVSNRFSGVPDRFSGSGSGTDFTLKISRVEAEDVGVYYCYQGTQVPYTFGQGTKLEIKR
22 | 0.00185 nM | GCH057-G1dh/none-Hi-Kn010G3/L0222-k0 (antibody, V domains shown, one-arm) VH: QVQLVQSGAEVKKPGASVTVSCKASGYTFTDYEMHWIRQPPGEGLEWIGAIDGETPDTAYSEKFEGRVTLTADKSTSTAYMELSSLTSEDTAVYYCTRFYSYTYWGQGTLVTVSS VL: DIVMTQSPLSLPVTPGEPASISCRSSQSPVHSNRNTYIQWYQQKPGQAPRLLIYKVSNRFSGVPDRFSGSGSGTDFTLKISRVEAEDVGVYYCYQGTQVPYTFGQGTKLEIKR
